Like-named read-outs stand apart in the source and are kept apart here.
Tests used:
wheat eIF4E = biological target: T1, wheat eIF4E (Triticum aestivum, UniProt P29557); test: isothermal titration calorimetry; format: binding
T1 sequence (P29557 39-215): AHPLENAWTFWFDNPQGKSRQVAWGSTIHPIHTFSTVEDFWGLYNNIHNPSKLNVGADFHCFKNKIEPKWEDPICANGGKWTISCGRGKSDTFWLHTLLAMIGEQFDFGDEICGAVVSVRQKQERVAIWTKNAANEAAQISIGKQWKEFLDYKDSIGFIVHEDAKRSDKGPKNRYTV

human eIF4E [1] = biological target: T2, human eIF4E (human, UniProt P06730); test: ITC
human eIF4E [2] = biological target: T2, human eIF4E; test: ITC; remark: listed apart in the source
human eIF4E [3] = biological target: T2, human eIF4E; test: ITC; remark: listed apart in the source
GB1-human eIF4E = GB1-human eIF4E (human, UniProt P06730); test: ITC
human eIF4E [4] = biological target: T2, human eIF4E; test: ITC; remark: listed apart in the source

For `C[n+]1cn([C@@H]2O[C@H](COP(=O)(O)OP(=O)(O)OP(=O)(O)O)[C@@H](O)[C@H]2O)c2nc(N)[nH]c(=O)c21` [m7GTP], the Kd (wheat eIF4E) was 1800 ± 800 nM.

B1: SCV PTE G18C (structured_RNA)
RNA: GGUUGCUCGACUGUGAGCGGACCUACCCACUGUGGAAACACCACAGGAACUUCCAACCUUCGGGUGGCGAGGUAGGGCAGAAGAGUGACC
B1: no binding (human eIF4E [1]).

B2: SCV PTE G18A (structured_RNA)
RNA: GGUUGCUCGACUGUGAGAGGACCUACCCACUGUGGAAACACCACAGGAACUUCCAACCUUCGGGUGGCGAGGUAGGGCAGAAGAGUGACC
B2 showed a Kd (human eIF4E [2]) of 6200 ± 900 nM.

B3: SCV PTE G18U (structured_RNA)
RNA: GGUUGCUCGACUGUGAGUGGACCUACCCACUGUGGAAACACCACAGGAACUUCCAACCUUCGGGUGGCGAGGUAGGGCAGAAGAGUGACC
B3: no binding (human eIF4E [1]).

B4: SCV PTE WT (structured_RNA)
RNA: GGUUGCUCGACUGUGAGGGGACCUACCCACUGUGCUGCCACACAGGAACUUCCAACCUUCGGGUGGCGAGGUAGGGCAGAAGAGUGACC
Work on B4 yielded a Kd (human eIF4E [3]) of 576 ± 56 nM and a Kd (GB1-human eIF4E) of 900 ± 236 nM.

Molecule GGGGUCUCUCUUGUCGAGAGGCAAGGAACCC (ssRNA, 5' cap (m7G)) [5' capped RNA] has a Kd (human eIF4E [4]) of 76 ± 3 nM.

Reference: paper PMC10823258 (Proceedings of the National Academy of Sciences of the …, 2024)
